From patent publication US20030153066A1

Molecular target: HIV-1 Gag Pr55 (wild-type) (HIV-1) (UniProt P03348)
Assay: cell-based or functional assay

HuHP68-GST fusion protein (from UniProt P61221 1-599)
amount of 750S capsid in HP68-immunodepleted cell-free reactions after reconstitution: 3 fold

WGHP68-GST fusion protein
amount of 750S capsid in HP68-immunodepleted cell-free reactions after reconstitution: 3 fold
